Results taken from article PMC4357710, “TEFM is a potent stimulator of mitochondrial transcription elongation in vitro” (Nucleic Acids Research, 2015).

Assays:
POLRMT = POLRMT (Homo sapiens, UniProt O00411 42-1230); assay: MST; 500 uM ATP (one nt incorporation, paused), 10 mM Mg2+, no TEFM; MST: 25 mM Tris-HCl pH 8.0, 100 mM NaCl, 10 mM MgCl2, 10% glycerol, 1 mM DTT, 500 uM ATP, 0.05% Tween-20, 15 nM template, 22 C; footprinting: 25 mM Tris-HCl pH; conditions: protein: recombinant; label: 5' Alexa488 on DNA; 8 bp DNA:RNA hybrid; DNA 5' overhang 10 nt; RNA 5' overhang 4 nt (UUUU)
Chain of POLRMT (O00411 42-1230): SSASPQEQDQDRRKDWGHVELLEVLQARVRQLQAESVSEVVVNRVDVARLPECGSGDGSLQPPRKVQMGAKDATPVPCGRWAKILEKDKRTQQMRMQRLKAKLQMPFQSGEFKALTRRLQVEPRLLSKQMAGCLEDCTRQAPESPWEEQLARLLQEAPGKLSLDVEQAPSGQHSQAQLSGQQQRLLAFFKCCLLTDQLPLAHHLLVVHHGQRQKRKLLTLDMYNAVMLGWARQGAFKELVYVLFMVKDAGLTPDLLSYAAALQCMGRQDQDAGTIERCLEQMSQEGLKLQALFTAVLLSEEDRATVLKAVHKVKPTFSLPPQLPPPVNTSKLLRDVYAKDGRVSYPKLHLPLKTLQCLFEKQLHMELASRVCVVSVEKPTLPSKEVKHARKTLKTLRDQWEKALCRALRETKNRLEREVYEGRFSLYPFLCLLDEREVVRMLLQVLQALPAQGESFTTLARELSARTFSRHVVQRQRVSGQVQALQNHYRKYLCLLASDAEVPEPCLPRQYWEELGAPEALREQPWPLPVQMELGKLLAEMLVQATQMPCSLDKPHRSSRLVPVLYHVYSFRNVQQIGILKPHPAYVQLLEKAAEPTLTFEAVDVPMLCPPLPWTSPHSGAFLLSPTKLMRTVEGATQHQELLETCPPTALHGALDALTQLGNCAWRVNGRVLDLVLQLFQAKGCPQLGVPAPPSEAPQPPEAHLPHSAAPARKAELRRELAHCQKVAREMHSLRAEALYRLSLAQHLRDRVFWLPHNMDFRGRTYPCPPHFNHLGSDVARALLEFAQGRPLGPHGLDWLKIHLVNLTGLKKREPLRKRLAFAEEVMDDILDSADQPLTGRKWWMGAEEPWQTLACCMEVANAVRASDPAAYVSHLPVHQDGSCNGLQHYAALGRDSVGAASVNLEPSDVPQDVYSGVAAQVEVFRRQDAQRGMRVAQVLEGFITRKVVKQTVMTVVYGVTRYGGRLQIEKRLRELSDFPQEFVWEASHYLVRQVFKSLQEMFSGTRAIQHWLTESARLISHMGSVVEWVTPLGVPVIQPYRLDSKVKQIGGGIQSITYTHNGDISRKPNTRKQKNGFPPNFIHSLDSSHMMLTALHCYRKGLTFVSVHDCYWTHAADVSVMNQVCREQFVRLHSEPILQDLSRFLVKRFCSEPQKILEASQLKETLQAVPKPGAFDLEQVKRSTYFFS

POLRMT;TEFM = POLRMT;TEFM (Homo sapiens;Homo sapiens, UniProt O00411;Q96QE5 42-1230;36-360, |); assay: MST; POLRMT titrated with 2000 nM TEFM; 500 uM ATP (one nt incorporation, paused), 10 mM Mg2+; MST: 25 mM Tris-HCl pH 8.0, 100 mM NaCl, 10 mM MgCl2, 10% glycerol, 1 mM DTT, 500 uM ATP, 0.05% Tween-20, 15 nM template, 22 C; footprinting: 25 mM Tris-HCl pH; conditions: protein: recombinant;recombinant; copies: 1;2; label: 5' Alexa488 on DNA; 8 bp DNA:RNA hybrid; DNA 5' overhang 10 nt; RNA 5' overhang 4 nt (UUUU)
Chain of POLRMT;TEFM (O00411 42-1230, chain 1 of 2, one chain of several): as the sequence (O00411 42-1230) above

[1] = target: the molecule itself; assay: SEC; analytic gel filtration of recombinant TEFM; apparent molecular weight 82 kDa against 37.6 kDa for the chain

Binder	Kd (POLRMT)	Kd (POLRMT;TEFM)	stoichiometry N [1]
elongation-like DNA:RNA template (18-mer DNA / 12-mer RNA) (DNA:RNA) DNA: GGGAATGCATGGCGCGGC RNA: UUUUGCCGCGCC	47.8 ± 2.88 nM	11.2 ± 1 nM	–
human TEFM (mitochondrial transcription elongation factor), residues 36-360 (natural protein, UniProt Q96QE5 36-360, looked up, amine-labeled with NT-547 dye (only in the MST with POLRMT), human TEFM, UniProt Q96QE5, residues 36-360; lacks the predicted mitochondrial targeting signal; The gel filtration used unlabelled protein; the MST used NT-547-labelled protein; also called recombinant TEFM; recombinant human TEFM; source: KRX cells (Promega), purified (Ni-IMAC, TEV cleavage, HiTrap Heparin, Sephacryl S-200 gel filtration); not shown: His6, N-terminal, cleaved) KSTTPKKITPNVTFCDENAKEPENALDKLFSSEQQASILHVLNTASTKELEAFRLLRGRRSINIVEHRENFGPFQNLESLMNVPLFKYKSTVQVCNSILCPKTGREKRKSPENRFLRKLLKPDIERERLKAVNSIISIVFGTRRIAWAHLDRKLTVLDWQQSDRWSLMRGIYSSSVYLEEISSIISKMPKADFYVLEKTGLSIQNSSLFPILLHFHIMEAMLYALLNKTFAQDGQHQVLSMNRNAVGKHFELMIGDSRTSGKELVKQFLFDSILKADPRVFFPSDKIVHYRQMFLSTELQRVEELYDSLLQAIAFYELAVFDSQP	–	–	2
